Usually Ki stands for the dissociation constant of the complex between target and ligand, obtained from inhibition or displacement. As usually defined, the kcat is the maximal rate divided by the concentration of active sites. As usually defined, the Km is the substrate concentration at which the rate is half of its maximum. What is called kcat/Km is the turnover number divided by the Michaelis constant.

Series [1] has as its target T1, Pnc1 (Saccharomyces cerevisiae, UniProt P53184). Briefly: Effect of EDTA or ZnCl2 on Pnc1 activity. In kind it is biochemical, S. cerevisiae. Particulars: data not shown.
Series [2] has as its target T1, Pnc1. Briefly: Pnc1 competitive inhibition. The format is biochemical, S. cerevisiae. Conditions: for inhibition pattern: double-reciprocal analysis versus nicotinamide.
Series [3] concerns the target T1, Pnc1. Kind of series: HPLC assay of substrate activity. Particulars: for kcat: HPLC assay, no activity above detection limit of 10^−5 s^−1. In kind it is biochemical, S. cerevisiae.
The target of series [4] is T1, Pnc1. Briefly: Product inhibition by ammonium ion, HPLC assay. In kind it is biochemical, S. cerevisiae. Conditions: for inhibition pattern: versus nicotinamide, data not shown.
Series [5] addresses T1, Pnc1. Particulars: 100 mM ammonium chloride and 5 mM nicotinic acid, 5 µM Pnc1, 150 minutes, pH 7.5; no nicotinamide detected.
The test system of the next series is S. cerevisiae Pnc1. Particulars: French et al.; cited from earlier work.
The target of series [6] is nicotinamidase from M. lysodeikticus. Conditions: cited from earlier work.
Series [7] addresses nicotinamidase from Tortula cremoris. Particulars: cited from earlier work.
Series [8] deals with nicotinamidase from Fleischmann’s yeast. Particulars: cited from earlier work.
The target in series [9] is T1, Pnc1. The format is biochemical, S. cerevisiae.
For series [10], the system named is nicotinamidase from S. cerevisiae. Particulars: S. cerevisiae Pnc1, French et al.; cited from earlier work.
Series [11] has as its target T1, Pnc1. Kind of series: 15N kinetic isotope effect with substrates. In kind it is biochemical, S. cerevisiae.
For series [12], the system named is Pnc1 WT or mutant. Briefly: Steady-state kinetic parameters of Pnc1 mutants, enzyme-coupled assay. In kind it is biochemical, S. cerevisiae. Particulars: substrate nicotinamide; for kcat: pH 7.5.
In series [13] the test system is Pnc1 WT or mutant. Kind of series: 15N kinetic isotope effect of Pnc1 mutants. Conditions: substrate nicotinamide. The format is biochemical, S. cerevisiae.
The test system of series [14] is Pnc1 WT or mutant. Kind of series: 13C kinetic isotope effect of Pnc1 mutants. In kind it is biochemical, S. cerevisiae. Particulars: substrate nicotinamide.
Substrate in series [15]: Cc1cncc(C(N)=O)c1
The format is biochemical, S. cerevisiae. Particulars: other: substrate of Pnc1, pH 7.5, 25.0 °C.

Substrate in series [16]: NC(=O)c1ccccc1
The format is biochemical, S. cerevisiae. Particulars: other: substrate of Pnc1, pH 7.5, 25.0 °C.

Substrate in series [17]: NC(=O)c1cccnc1
In kind it is biochemical, S. cerevisiae. Conditions: other: substrate of Pnc1, pH 7.5, 25.0 °C.

Substrate in series [18]: NC(=O)c1cnccn1
The format is biochemical, S. cerevisiae. Conditions: other: substrate of Pnc1, pH 7.5, 25.0 °C.

Substrate in series [19]: NC(=S)c1cccnc1
The format is biochemical, S. cerevisiae. Conditions: other: substrate of Pnc1, pH 7.5, 25.0 °C.

Turning to `[Cl-].[Cl-].[Zn+2]` [ZnCl2], the “effect on activity of wild type Pnc1” value at Pnc1 [1] (2 mM) was “failed to increase activity”.
In the case of `O=C(O)c1cnccn1` [pyrazinoic acid], at Pnc1 [2], the Ki worked out at 6700 ± 1700 µM, the “fold higher Ki value compared to nicotinic acid” value was 56 fold and the inhibition pattern entry was “competitive inhibition patterns”.
For the molecule `NC(=O)C1=CN([C@@H]2O[C@H](COP(=O)(O)OP(=O)(O)OC[C@H]3O[C@@H](n4cnc5c(N)ncnc54)[C@H](O)[C@@H]3O)[C@@H](O)[C@H]2O)C=CC1` [β-nicotinamide adenine dinucleotide], at Pnc1 [3], the substrate activity entry was “not substrates” and the catalytic constant (kcat) is recorded as < 10^−5 ^c s^−1. Besides, the kcat at Pnc1 [3] (listed as NAD^+) was < 10^−5 s^−1.
As for `Cl.N` [ammonium chloride], the “concentration required for inhibition” value at Pnc1 [4] is “greater than 10 mM”. In addition, the inhibition pattern result against Pnc1 [4] is on record as “non-competitive inhibition”; at Pnc1 [4] (listed as ammonium ion), “non-competitive inhibition patterns”.
Consider `O=C(O)c1cccnc1` [nicotinic acid], for which, at Pnc1 [2], the Ki is 120 ± 19 µM and the inhibition pattern result was “competitive inhibition patterns”. The “reverse reaction rate (upper estimate)” value at Pnc1 [5] is reported as < 10^−5 s^−1. Also, in the series on S. cerevisiae Pnc1, the inhibition entry is “no inhibition”.
For the molecule `O=C(O)CN(CCN(CC(=O)O)CC(=O)O)CC(=O)O` [EDTA, ethylenediaminetetraacetic acid], the “inhibition of Pnc1” value on Pnc1 [1] (10 mM) is listed as “did not inhibit”.
`O=Cc1ccccc1` [benzaldehyde]: on Pnc1 [2], the Ki was determined as 20600 ± 5700 µM and the “fold less potent inhibitor compared to nicotinaldehyde” value is given as 22,000 fold. Also, in [6], the Ki was 1800 µM.
As for `CC(=O)c1cccnc1` [3-acetylpyridine], the Ki on Pnc1 [2] was 316 ± 101 µM; in series [6], 160 µM; in series [7], 305 µM; in series [8], 65 µM. On Pnc1 [2], the inhibition pattern result was “competitive inhibition”.
For the molecule `C[n+]1cccc(C(N)=O)c1` [1-methylnicotinamide], at Pnc1 [9], the “fold decreased kcat/Km compared to nicotinamide” value turned out to be 8400 fold. For the same molecule, the substrate activity result in series [10] was “no activity”.
On to `NC(=S)c1cccnc1` [thionicotinamide], for which the “increase in 15N KIE value compared to nicotinamide” value at Pnc1 [11] was 1.4%. Further, the “15N KIE” value at Pnc1 [11] (on V/K, pH 7.5) is recorded as 1.0262 ± 0.0019.
`NC(=O)c1ccc[n+]([C@@H]2O[C@H](COP(=O)([O-])O)[C@@H](O)[C@H]2O)c1` [nicotinamide mononucleotide (NMN^+), nicotinamide mononucleotide]: on Pnc1 [3], the substrate activity result is listed as “not substrates” and the kcat is listed as < 10^−5 ^c s^−1.

B1: Pnc1 (Saccharomyces cerevisiae S288C) (protein)
chain: MKTLIVVDMQNDFISPLGSLTVPKGEELINPISDLMQDADRDWHRIVVTRDWHPSRHISFAKNHKDKEPYSTYTYHSPRPGDDSTQEGILWPVHCVKNTWGSQLVDQIMDQVVTKHIKIVDKGFLTDREYYSAFHDIWNFHKTDMNKYLEKHHTDEVYIVGVALEYCVKATAISAAELGYKTTVLLDYTRPISDDPEVINKVKEELKAHNINVVDK
In the case of B1, the kcat in the series on Pnc1 WT or mutant [12] came to 0.69 ± 0.04 s⁻¹; in series [15], 1.75 ± 0.05 s⁻¹; in [16], 0.0088 ± 0.0004 s⁻¹; in series [17] it was 0.69 ± 0.04 s⁻¹; in [18], 2.56 ± 0.1 s⁻¹. Further, the “15N KIE” value is on record as ~ 1.25% in the series with Pnc1 WT or mutant [13] (as percent) and 1.0122 ± 0.0002 with Pnc1 WT or mutant [13] (pH 7.5). Further, the “13C KIE” value in the series on Pnc1 WT or mutant [14] (as percent) is listed as ~ 1.25%; with Pnc1 WT or mutant [14] (pH 7.5), 1.0125 ± 0.0004. In addition, the Km was 61 ± 6 µM in series [15], 25 ± 7 µM in series [16], 9.6 ± 2.1 µM in [17] and 157 ± 16 µM in series [18]. Also, the kcat/Km was 29000 ± 2000 M⁻¹ s⁻¹ in series [15]; 350 ± 90 M⁻¹ s⁻¹ in series [16]; 72000 ± 12000 M⁻¹ s⁻¹ in [17]; 16000 ± 1000 M⁻¹ s⁻¹ in series [18]; 50 ± 17 M⁻¹ s⁻¹ in [19].

B2: D51N (protein, UniProt P53184 1-216, looked up, variant D51N)
Nicotinamidase: MKTLIVVDMQNDFISPLGSLTVPKGEELINPISDLMQDADRDWHRIVVTRNWHPSRHISFAKNHKDKEPYSTYTYHSPRPGDDSTQEGILWPVHCVKNTWGSQLVDQIMDQVVTKHIKIVDKGFLTDREYYSAFHDIWNFHKTDMNKYLEKHHTDEVYIVGVALEYCVKATAISAAELGYKTTVLLDYTRPISDDPEVINKVKEELKAHNINVVDK
Consider B2, for which the “fold more active than the D51A mutant” value with Pnc1 WT or mutant [12] was 3 fold. Also, the kcat in the series on Pnc1 WT or mutant [12] came to 0.064 ± 0.012 s⁻¹. The “15N KIE” value is recorded as ~ 0.5% in the series with Pnc1 WT or mutant [13] (as percent) and 1.0047 ± 0.0006 in the series with Pnc1 WT or mutant [13] (pH 7.5). The “13C KIE” value was ~ 0.5% with Pnc1 WT or mutant [14] (as percent) and 1.0058 ± 0.0006 in the series on Pnc1 WT or mutant [14] (pH 7.5).

B3: D51A (protein, UniProt P53184 1-216, looked up, variant D51A)
Nicotinamidase: MKTLIVVDMQNDFISPLGSLTVPKGEELINPISDLMQDADRDWHRIVVTRAWHPSRHISFAKNHKDKEPYSTYTYHSPRPGDDSTQEGILWPVHCVKNTWGSQLVDQIMDQVVTKHIKIVDKGFLTDREYYSAFHDIWNFHKTDMNKYLEKHHTDEVYIVGVALEYCVKATAISAAELGYKTTVLLDYTRPISDDPEVINKVKEELKAHNINVVDK
As to B3, the kcat in the series with Pnc1 WT or mutant [12] came to 0.020 ± 0.005 s⁻¹. In the series with Pnc1 WT or mutant [13] (pH 7.5), the “15N KIE” value is recorded as 1.0166 ± 0.0018. The “13C KIE” value in the series with Pnc1 WT or mutant [14] (pH 7.5) is given as 1.0075 ± 0.0015.

B4: H94A (protein, UniProt P53184 1-216, looked up, variant H94A)
Nicotinamidase: MKTLIVVDMQNDFISPLGSLTVPKGEELINPISDLMQDADRDWHRIVVTRDWHPSRHISFAKNHKDKEPYSTYTYHSPRPGDDSTQEGILWPVACVKNTWGSQLVDQIMDQVVTKHIKIVDKGFLTDREYYSAFHDIWNFHKTDMNKYLEKHHTDEVYIVGVALEYCVKATAISAAELGYKTTVLLDYTRPISDDPEVINKVKEELKAHNINVVDK
B4: the kcat in the series on Pnc1 WT or mutant [12] came out at 0.020 ± 0.002 s⁻¹.

B5: K122A (protein, UniProt P53184 1-216, looked up, variant K122A)
Nicotinamidase: MKTLIVVDMQNDFISPLGSLTVPKGEELINPISDLMQDADRDWHRIVVTRDWHPSRHISFAKNHKDKEPYSTYTYHSPRPGDDSTQEGILWPVHCVKNTWGSQLVDQIMDQVVTKHIKIVDAGFLTDREYYSAFHDIWNFHKTDMNKYLEKHHTDEVYIVGVALEYCVKATAISAAELGYKTTVLLDYTRPISDDPEVINKVKEELKAHNINVVDK
B5: in the series on Pnc1 WT or mutant [12], the “fold lower kcat compared to Pnc1 WT” value came out at 16 fold and the kcat was determined as 0.044 ± 0.023 s⁻¹.

B6: D8N (protein, UniProt P53184 1-216, looked up, variant D8N)
Nicotinamidase: MKTLIVVNMQNDFISPLGSLTVPKGEELINPISDLMQDADRDWHRIVVTRDWHPSRHISFAKNHKDKEPYSTYTYHSPRPGDDSTQEGILWPVHCVKNTWGSQLVDQIMDQVVTKHIKIVDKGFLTDREYYSAFHDIWNFHKTDMNKYLEKHHTDEVYIVGVALEYCVKATAISAAELGYKTTVLLDYTRPISDDPEVINKVKEELKAHNINVVDK
As to B6, in the series with Pnc1 WT or mutant [12], the “fold lower kcat compared to Pnc1 WT” value was determined as 1150 fold and the kcat is 0.0006 ± 0.0001 s⁻¹.

B7: D8A (protein, UniProt P53184 1-216, looked up, variant D8A)
Nicotinamidase: MKTLIVVAMQNDFISPLGSLTVPKGEELINPISDLMQDADRDWHRIVVTRDWHPSRHISFAKNHKDKEPYSTYTYHSPRPGDDSTQEGILWPVHCVKNTWGSQLVDQIMDQVVTKHIKIVDKGFLTDREYYSAFHDIWNFHKTDMNKYLEKHHTDEVYIVGVALEYCVKATAISAAELGYKTTVLLDYTRPISDDPEVINKVKEELKAHNINVVDK
With B7, in the series with Pnc1 WT or mutant [12], the “fold lower kcat compared to Pnc1 WT” value amounted to 767 fold and the kcat was 0.0009 ± 0.0001 s⁻¹.

B8: H53A (protein, UniProt P53184 1-216, looked up, variant H53A)
Nicotinamidase: MKTLIVVDMQNDFISPLGSLTVPKGEELINPISDLMQDADRDWHRIVVTRDWAPSRHISFAKNHKDKEPYSTYTYHSPRPGDDSTQEGILWPVHCVKNTWGSQLVDQIMDQVVTKHIKIVDKGFLTDREYYSAFHDIWNFHKTDMNKYLEKHHTDEVYIVGVALEYCVKATAISAAELGYKTTVLLDYTRPISDDPEVINKVKEELKAHNINVVDK
B8: the kcat in the series with Pnc1 WT or mutant [12] was 0.014 ± 0.002 s⁻¹.

B9: D8E (protein, UniProt P53184 1-216, looked up, variant D8E)
Nicotinamidase: MKTLIVVEMQNDFISPLGSLTVPKGEELINPISDLMQDADRDWHRIVVTRDWHPSRHISFAKNHKDKEPYSTYTYHSPRPGDDSTQEGILWPVHCVKNTWGSQLVDQIMDQVVTKHIKIVDKGFLTDREYYSAFHDIWNFHKTDMNKYLEKHHTDEVYIVGVALEYCVKATAISAAELGYKTTVLLDYTRPISDDPEVINKVKEELKAHNINVVDK
As to B9, in the series on Pnc1 WT or mutant [12], the “fold lower kcat compared to Pnc1 WT” value is 100 fold and the kcat was found to be 0.0070 ± 0.0001 s⁻¹. The “15N KIE” value in the series with Pnc1 WT or mutant [13] (pH 7.5) is 1.0218 ± 0.0015. In addition, the “13C KIE” value with Pnc1 WT or mutant [14] (pH 7.5) was found to be 1.0258 ± 0.0012.
